Target: the molecule itself
Assay: crystal structure; hanging-drop vapor diffusion; ammonium sulfate (50-80% saturated), NaCl 0.1 M, Tris HCl 20 mM pH 7.2; BFR D132F with <1 heme/24-mer; 12 monomers in the asymmetric unit; 2.0 Å

B1: E. coli bacterioferritin D132F variant (natural protein)
chain: not shown
notes: Bacterioferritin (BFR), E. coli, bfr gene in pET21a (pALN1) with D132F made by QuikChange; the model holds '12 complete monomers' in the asymmetric unit (1896 C-alpha atoms for the 12-mer, i.e. 158 per chain); Crystallised with <1 heme/24-mer, free of metal ions (apo); no tag is mentioned; also called BFR D132F; apo-D132F variant; copies: 24
binding result: binds

Source: paper PMC4319037, “The B-type Channel Is a Major Route for Iron Entry into the Ferroxidase Center and Central Cavity of Bacterioferritin*” (The Journal of Biological Chemistry, 2014)
